Experimental findings from PMC6181972, “Indoleacetate decarboxylase is a glycyl radical enzyme catalysing the formation of malodorant skatole” (Nature Communications, 2018) are described below.

Substrate in data set [1]: O=C(O)Cc1c[nH]c2ccccc12
The data set is described as follows: purified protein. To be noted: activated with 100 nM OsIADAE, 1 mM SAM, 0.2 mM Ti(III) citrate, 20 mM Tris-HCl pH 7.5, 0.1 M KCl, 30 °C, anaerobic.

Data set [2] deals with the molecule itself. The data set is described as follows: SEC; size exclusion chromatography of purified recombinant OsIAD; column and buffer not told in the text shown (Supplementary Fig. 1c); dimer to monomers. Background: SEC sorts molecules by how far they enter the pores of the column.

B1: Olsenella scatoligenes indoleacetate decarboxylase (OsIAD) (enzyme, UniProt A0A100YXA1 1-878, looked up)
chain: MQESLVLEMLQTGKTATWPANSGTQDGEGFVDKEVKGVPSTDRTKRMKERFMNAKCKMDMEAPIAYTKAWRMYEGKPLYVRRGLSYKYMLEHLTPVIRPDELITMSKTRYDRGATQVPQFATDFMISFLTQAEDQKDEAKLFSVEGKDEAHTVDEEGWTPVGQLFSIREEEVKPMLEVLEYWKTRCVENVSDEWMKTSFPMYQDYINAKKVGLFPGSGLHAGCDGRWIPAYDVVLGGLNKVIDECKKNIAKTVVTTKDVADKVFFWQGCIYACEGAIAWANNYAKEARRLAEITPEPRKTELLQMAERLERVPAEPPRNFMEAVQALWTAQILIISDSLALGVSPGRWGKLLEPYYEKDLADGVITKEQALEVMEMLRIKFSTEEYITPSLWAAMASSNSFMNLAVGGLDPKTGQCTDNELEDLILQAGINMPTPQPTLSMLLSNKTSDHLALKAAECTKAGNGYPAWFNYDMMVEHNLWCYADEGITMEDARNCALSGCVENGLAGTGHPIAHPAFYNEGKTIELALHEGVDPRTGIKVMDGIKPVESYEDVWNNFVKIREHFMRVYMRYWNEVVACQRDIHPKIMGSIFMHDCVENGRPVDNLGCRYNGSVTLLDSGTVNVVNGLAAMKKLIWEDHKYTYAEFKEAMDNNFGFVLGAEKGNFSMLNQEIDPEKHMKYAQIHRDILNCPKFGNDDDFVDDIFVKVWQDYDRVTGSETTYNGYRWITAALSISAHGPHGRVTGATPDGRLAGVTLCDGILSASPGTDVNGPIALIRSGVKLDPTTFASVQLNMKFHPSAIRGEEGSKNFVDFIRSYFNMGGYHVQFNIVDSKMLRDAQDKPQNYRDLMVRVAGFSAYWNELGKPIQDEVIARTEYDAL
notes: Indoleacetate decarboxylase (glycyl radical enzyme) of Olsenella scatoligenes, UniProt A0A100YXA1; codon-optimized synthetic gene in pET-28a-HT (His6-tag, TEV protease cleavage site, then the construct); also called HT-IAD; A0A100YXA1; source: E. coli BL21 (DE3), purified (TALON, ammonium sulfate precipitation, G25 desalting)
The Km is the substrate concentration at which the rate is half of its maximum. In general, stoichiometry N refers to a count of units in the complex or per binding partner. Regarding B1, in data set [1], the Km is on record as 0.37 ± 0.06 mM and the kcat turned out to be 2.0 ± 0.1 s^–1. Besides, the “stoichiometry N” value in data set [2] is 2.
